Results published in patent US20060269549A1 (APPLIED MOLECULAR EVOLUTION, published 2006).

Tests used:
[1] = biological target: T1, human TNF-α (human, UniProt P01375 77-233); assay: ELISA, Fab dilution series on human TNF-α (Example 1; the filing does not say which of its two ELISA formats: hTNF-α-coated plate, or Fab captured on anti-human kappa with 5 nM biotinylated hTNF-α)
T1 construct: It was biotinylated in some screening assays; also called hTNF-α; hTNF

[2] = biological target: T1, human TNF-α; assay: KinExA 3000 kinetic exclusion assay
[3] = biological target: T1, human TNF-α; assay: cell-based or functional assay
[4] = biological target: T1, human TNF-α; assay: KinExA 3000 kinetic exclusion assay, 40 pM Fab mixed with 400 pM hTNF-α, time course
Protocol: (§1) Next, binding kinetics of three of the Fab fragments described in Table 4 were determined in a kinetic exclusion assay. Affinity measurements were performed on a KinExA™3000 instrument (Sapidyne Instruments, Inc., Boise, Id.) using Fab fragments (A10K, A9K, and A10P) released from the periplasmic space whose concentration was determined by a quantitative ELISA. Briefly, antigen and antibody fragment were allowed to react in solution and the fraction of unbound reagent was determined by capture and measured on a bead support. Binding kinetics can be determined or calculated from the amount of unbound reagent. For instance, after interaction between TNF-α and a Fab fragment has occurred in solution, binding of the unreacted, free Fab fragment to TNF-α coated beads can be measured on the instrument by detection with a labeled secondary antibody to the Fab fragment (e.g., a goat anti-IgG (heavy and light)). […] After the incubation, the amount of unbound Fab in the equilibrated samples was determined on the KinExA™3000 instrument according to the manufacturer's instructions. Kd values were determined by the instrument software.
(§2) To measure kₒₙ, individual Fab fragments at a concentration of 40 pM were mixed with 400 pM of hTNF-α. […] The resulting data was used to calculate the kₒₙ with the instrument software. koff was calculated by using the formula Kd=koff/kₒₙ.

[5] = biological target: T1, human TNF-α; assay: calculated from Kd = koff/kon (KinExA)
Protocol: (§3) Next, binding kinetics of three of the Fab fragments described in Table 4 were determined in a kinetic exclusion assay. Affinity measurements were performed on a KinExA™3000 instrument (Sapidyne Instruments, Inc., Boise, Id.) using Fab fragments (A10K, A9K, and A10P) released from the periplasmic space whose concentration was determined by a quantitative ELISA. Briefly, antigen and antibody fragment were allowed to react in solution and the fraction of unbound reagent was determined by capture and measured on a bead support. Binding kinetics can be determined or calculated from the amount of unbound reagent. For instance, after interaction between TNF-α and a Fab fragment has occurred in solution, binding of the unreacted, free Fab fragment to TNF-α coated beads can be measured on the instrument by detection with a labeled secondary antibody to the Fab fragment (e.g., a goat anti-IgG (heavy and light)). […] For A10K and A10P, the Fab concentration was 10 pM with the human TNF-α concentration beginning at 160 pM and then serially diluted to 0.078 pM with the final tube containing no human TNF-α. A9K incubation was set in a similar manner, with the Fab at a constant concentration of 20 pM and human TNF-α serially diluted beginning at 500 pM with a final concentration of 0.24 pM. After the incubation, the amount of unbound Fab in the equilibrated samples was determined on the KinExA™3000 instrument according to the manufacturer's instructions. Kd values were determined by the instrument software.
To measure kₒₙ, individual Fab fragments at a concentration of 40 pM were mixed with 400 pM of hTNF-α. A series of measurements were taken over a time course. The resulting data was used to calculate the kₒₙ with the instrument software. koff was calculated by using the formula Kd=koff/kₒₙ.

[6] = biological target: T1, human TNF-α; assay: KinExA 3000 kinetic exclusion assay, periplasmic Fab with hTNF-α in solution, 20 h at 20 C
Protocol: as §3

[7] = biological target: T1, human TNF-α; assay: KinExA 3000 kinetic exclusion assay, 40 pM Fab mixed with 400 pM hTNF-α, time course; lower end of the printed range for A10K
Protocol: as §1, §2

T1 sequence (P01375 77-233 limits assumed): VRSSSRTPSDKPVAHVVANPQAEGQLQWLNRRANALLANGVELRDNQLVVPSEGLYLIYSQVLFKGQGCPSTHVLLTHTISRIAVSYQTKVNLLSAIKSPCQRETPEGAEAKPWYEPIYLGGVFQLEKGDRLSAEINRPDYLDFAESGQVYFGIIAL

B1: 2E7K Fab fragment (Fab, name in Kabat numbering, V domains shown)
VH: EVQLVESGGGLVQPGGSLRLSCAASGFKFSNHWMNWVRQAPGKGLEWVGEIRSKSMNSATHYARSVKGRFTISRDDSKNSLYLQMNSLKTEDTAVYYCARNYYGSTYDHWGQGTLVTVSS
VL: EIVLTQSPDFQSVTPKEKVTITCRASQFVGLSIHWYQQKPDQSPKLLIKYASESRSGVPSRFSGSGSGTDFTLTINSLEAEDAATYYCQQSHSWHFTFGQGTKVEIK
[1]
  EC50 (read off the curve): ~0.02 µg/mL

B2: AME 3-2 antibody (antibody, V domains shown)
VH: EVQLVESGGGLVQPGGSLRLSCAASGFTFRNHWMNWVRQAPGKGLEWVGEIRSKSINSATFYAESVKGRFTISRDDSKNSLYLQMNSLKTEDTAVYYCARNYYGSYYDHWGQGTLVTVSS
VL: DIQMTQSPSSLSASVGDRVTITCVTTQFVGYAIHWYQQKPGKAPKLLIYYASSSRSGVPSRFSGSGSGTDFTLTISSLQPEDFATYYCQQSHGWPFTFGQGTKVEIK
[2]
  Kd: 0.01 pM
  koff: 2.6e-08 s⁻¹
  kon: 2.6e+06 M⁻¹ s⁻¹

B3: A10K IgG (antibody, V domains shown)
VH: EVQLVESGGGLVQPGGSLRLSCAASGFKFSNHWMNWVRQAPGKGLEWVGEIRSKSMNSATHYAESVKGRFTISRDDSKNSLYLQMNSLKTEDTAVYYCARNYYGSTYDHWGQGTLVTVSS
VL: EIVLTQSPDFQSVTPKEKVTITCRASQFVGYSIHWYQQKPDQSPKLLIKYASESRSGVPSRFSGSGSGTDFTLTINSLEAEDAATYYCQQSHSWHFTFGQGTKVEIK
[3]
  EC50, L929 cell protection assay (FIG. 10): ~2.7 pM

B4: A9P Fab fragment (Fab, name in Kabat numbering, V domains shown)
VH: EVQLVESGGGLVQPGGSLRLSCAASGFPFSNHWMNWVRQAPGKGLEWVGEIRSKSMNSATHYARSVKGRFTISRDDSKNSLYLQMNSLKTEDTAVYYCARNYYGSTYDHWGQGTLVTVSS
VL: EIVLTQSPDFQSVTPKEKVTITCRASQFVGMSIHWYQQKPDQSPKLLIKYASESKSGVPSRFSGSGSGTDFTLTINSLEAEDAATYYCQQSHSWHFTFGQGTKVEIK
[1]
  EC50 (read off the curve): ~0.02 µg/mL

B5: 2E7P Fab fragment (Fab, name in Kabat numbering, V domains shown)
VH: EVQLVESGGGLVQPGGSLRLSCAASGFPFSNHWMNWVRQAPGKGLEWVGEIRSKSMNSATHYARSVKGRFTISRDDSKNSLYLQMNSLKTEDTAVYYCARNYYGSTYDHWGQGTLVTVSS
VL: EIVLTQSPDFQSVTPKEKVTITCRASQFVGLSIHWYQQKPDQSPKLLIKYASESRSGVPSRFSGSGSGTDFTLTINSLEAEDAATYYCQQSHSWHFTFGQGTKVEIK
[1]
  EC50 (read off the curve): ~0.03 µg/mL

B6: 2C6K Fab fragment (Fab, name in Kabat numbering, V domains shown)
VH: EVQLVESGGGLVQPGGSLRLSCAASGFKFSNHWMNWVRQAPGKGLEWVGEIRSKSINSATHYARSVKGRFTISRDDSKNSLYLQMNSLKTEDTAVYYCARNYYGSTYDHWGQGTLVTVSS
VL: EIVLTQSPDFQSVTPKEKVTITCRASQFVGLSIHWYQQKPDQSPKLLIKYASEYMSGVPSRFSGSGSGTDFTLTINSLEAEDAATYYCQQSHSWHFTFGQGTKVEIK
[1]
  EC50 (read off the curve): ~0.02 µg/mL

B7: A9K Fab fragment (Fab, name in Kabat numbering, V domains shown)
VH: EVQLVESGGGLVQPGGSLRLSCAASGFKFSNHWMNWVRQAPGKGLEWVGEIRSKSMNSATHYARSVKGRFTISRDDSKNSLYLQMNSLKTEDTAVYYCARNYYGSTYDHWGQGTLVTVSS
VL: EIVLTQSPDFQSVTPKEKVTITCRASQFVGMSIHWYQQKPDQSPKLLIKYASESKSGVPSRFSGSGSGTDFTLTINSLEAEDAATYYCQQSHSWHFTFGQGTKVEIK
[4]
  kon: 2.6e+06 M⁻¹ s⁻¹
[5]
  koff: 6.2e-06 s⁻¹
[6]
  Kd: 2.4 pM
[1]
  EC50 (read off the curve): ~0.02 µg/mL

B8: A10P Fab fragment (Fab, name in Kabat numbering, V domains shown)
VH: EVQLVESGGGLVQPGGSLRLSCAASGFPFSNHWMNWVRQAPGKGLEWVGEIRSKSMNSATHYAESVKGRFTISRDDSKNSLYLQMNSLKTEDTAVYYCARNYYGSTYDHWGQGTLVTVSS
VL: EIVLTQSPDFQSVTPKEKVTITCRASQFVGYSIHWYQQKPDQSPKLLIKYASESRSGVPSRFSGSGSGTDFTLTINSLEAEDAATYYCQQSHSWHFTFGQGTKVEIK
[4]
  kon: 4.1e+06 M⁻¹ s⁻¹
[5]
  koff: 8.2e-06 s⁻¹
[6]
  Kd: 2 pM
[1]
  EC50 (read off the curve): ~0.02 µg/mL

B9: 2C6P Fab fragment (Fab, name in Kabat numbering, V domains shown)
VH: EVQLVESGGGLVQPGGSLRLSCAASGFPFSNHWMNWVRQAPGKGLEWVGEIRSKSINSATHYARSVKGRFTISRDDSKNSLYLQMNSLKTEDTAVYYCARNYYGSTYDHWGQGTLVTVSS
VL: EIVLTQSPDFQSVTPKEKVTITCRASQFVGLSIHWYQQKPDQSPKLLIKYASEYMSGVPSRFSGSGSGTDFTLTINSLEAEDAATYYCQQSHSWHFTFGQGTKVEIK
[1]
  EC50 (read off the curve): ~0.02 µg/mL

B10: hu1 Fab fragment (Fab, V domains shown)
VH: EVQLVESGGGLVQPGGSLRLSCAASGFTFSNHWMNWVRQAPGKGLEWVGEIRSKSINSATHYAESVKGRFTISRDDSKNSLYLQMNSLKTEDTAVYYCARNYYGSTYDHWGQGTLVTVSS
VL: EIVLTQSPDFQSVTPKEKVTITCRASQFVGSSIHWYQQKPDQSPKLLIKYASESMSGVPSRFSGSGSGTDFTLTINSLEAEDAATYYCQQSHSWHFTFGQGTKVEIK
notes: Parent Fab with fully human frameworks
[1]
  binding result: binds

B11: A10K Fab fragment (Fab, V domains shown)
VH: EVQLVESGGGLVQPGGSLRLSCAASGFKFSNHWMNWVRQAPGKGLEWVGEIRSKSMNSATHYAESVKGRFTISRDDSKNSLYLQMNSLKTEDTAVYYCARNYYGSTYDHWGQGTLVTVSS
VL: EIVLTQSPDFQSVTPKEKVTITCRASQFVGYSIHWYQQKPDQSPKLLIKYASESRSGVPSRFSGSGSGTDFTLTINSLEAEDAATYYCQQSHSWHFTFGQGTKVEIK
notes: Fab released from the E. coli periplasm; Mutations against hu1: light S31Y, M55R; heavy T28K, I53M
[7]
  kon: 3.9e+06 to 7.51e+06 M⁻¹ s⁻¹
[5]
  koff: 1.96e-05 to 3.76e-05 s⁻¹
[6]
  Kd: 3.5 to 7.2 pM
[1]
  EC50 (read off the curve): ~0.02 µg/mL
[3]
  EC50, L929 cell protection assay (FIG. 8): ~25 pM
  EC50, L929 cell protection assay (FIG. 9): ~67 pM
